# Paper PMC9585516, “In Vitro Demonstration of Human Lipoyl Synthase Catalytic Activity in the Presence of NFU1” (ACS Bio & Med Chem Au, 2022)
# B1: human NFU1, amino acids 59-254, holo form (domain or fragment)
# chain: GHMFIQTQDTPNPNSLKFIPGKPVLETRTMDFPTPAAAFRSPLARQLFRIEGVKSVFFGPDFITVTKENEELDWNLLKPDIYATIMDFFASGLPLVTEETPSGEAGSEEDDEVVAMIKELLDTRIRPTVQEDGGDVIYKGFEDGIVQLKLQGSCTSCPSSIITLKNGIQNMLQFYIPEVEGVEQVMDDESDEKEANSP
# notes: Gly-His N-terminal appendage left after removal of the His6-SUMO tag; NFU1, human, Q9UMS0 (full length 1-254), N-terminally truncated variant, amino acids 59-254; Holo form with a [4Fe-4S] cluster; also called holo-NFU1; NFUI; source: E. coli BL21 (DE3) with pDB1282, purified under anoxic conditions (Ni-IMAC, SUMO tag removed with ULP1, SEC); not shown: His6, N-terminal, cleaved; SUMO, …
# B2: human lipoyl synthase (LIAS), amino acids 28-372, holo form (enzyme)
# chain: GHLSSLPDKKKELLQNGPDLQDFVSGDLADRSTWDEYKGNLKRQKGERLRLPPWLKTEIPMGKNYNKLKNTLRNLNLHTVCEEARCPNIGECWGGGEYATATATIMLMGDTCTRGCRFCSVKTARNPPPLDASEPYNTAKAIAEWGLDYVVLTSVDRDDMPDGGAEHIAKTVSYLKERNPKILVECLTPDFRGDLKAIEKVALSGLDVYAHNVETVPELQSKVRDPRANFDQSLRVLKHAKKVQPDVISKTSIMLGLGENDEQVYATMKALREADVDCLTLGQYMQPTRRHLKVEEYITPEKFKYWEKVGNELGFHYTASGPLVRSSYKAGEFFLKNLVAKRKTKDL
# notes: Gly-His N-terminal appendage left after removal of the His6-SUMO tag; Holo form with two [4Fe-4S] clusters; also called holo-LIAS; source: E. coli BL21 (DE3) with pDB1282, purified under anoxic conditions (Ni-IMAC, SUMO tag removed with ULP1, SEC); not shown: His6, N-terminal, cleaved; SUMO, N-terminal, cleaved
# Legend:
# [1] = target: B2; assay: ITC; 2 uL injections of LIAS (150 uM, syringe) into NFU1 (19 uM, cell) at 27 °C, anaerobic; 0.1 M HEPES pH 7.5, 0.5 M KCl, 5% glycerol, 2 mM TCEP; conditions: both partners purified
# [2] = target: B1; assay: SEC; HiPrep 16/60 Sephacryl HR S-200 in an anaerobic glovebox, 0.5 mL/min; 50 mM HEPES pH 7.5, 250 mM KCl, 10% glycerol, 2.5 mM TCEP, 10 mM BME; holo-LIAS alone (100 uM), holo-NFU1 alone (200 uM) and a 1:1 mixture; masses from a calibration curve; peak fractions checked by SDS-PAGE; conditions: both partners purified
Kd [1] [nM],stoichiometry N [2],Binder
700 ± 200,–,B1
–,1,B2
